We go through two molecules from patent publication US20260374812 (published 2026).

Where no end group is shown, it is not given here.

Test [1] concerns the target T1, TTR34-54cyc (human, cyclic, disulfide between the two Cys in the poly-Gly linkers). Description: ELISA, ELISA-2.
Test [2] has as its target T2, Biotin.TTR40-49 (human, not fully specified (N-terminus)).
T2 chain: TWEPFASGKT
Description: ELISA.

In test [3] the target is T1, TTR34-54cyc. Description: ELISA, ELISA-1.
The target of test [4] is T3, TTR40-49 (human).
T3 chain: TWEPFASGKT
Kind of test: ELISA.

Test [5] has as its target mis.WT-TTR (human). Description: ELISA, ELISA-2.
The target of test [6] is mis.WT-TTR (human). Description: ELISA, ELISA-1.

T1 sequence (chain, as listed by the source): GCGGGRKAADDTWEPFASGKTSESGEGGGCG

B1: NI-301.37F1 (antibody, V domains shown)
VH: QVQLQESGPGLVKPSETLSLTCSVSGGSIISRSSYWGWIRQPPGKGLEWIGGIYHSGNTYDNPSLKSRLTMSVDTSKNQFSLNLRSVTAADTAVYYCARIVPGGDAFDIWGQGTMVTVSS
VL: DIQMTQSPSSLSASVGDRVTIACRASQSVGTYLNWYQQKRGKAPKLLIFAASSLQSGVPSRFSGSGSGTDFTLTISSLQPEDFATYYCQQSYSSPPTFGQGTKVEIK
As to B1, the EC50 in test [1] came to 0.66 nM; in test [3] it was 0.027 nM. Besides, the binding result in test [2] and in test [4] was “no binding” each time.

B2: NI-301.37F1 (antibody, V domains shown)
VH: QVQLQESGPGLVKPSETLSLTCSVSGGSIISRSSYWGWIRQPPGKGLEWIGGIYHSGNTYDNPSLKSRLTMSVDTSKNQFSLNLRSVTAADTAVYYCARIVPGGDAFDIWGQGTMVTVSS
VL: DIQMTQSPSSLSASVGDRVTIACRASQSVGTYLNWYQQKRGKAPKLLIFAASSLQSGVPSRFSGSGSGTDFTLTISSLQPEDFATYYCQQSYSSPPTFGQGTKVEIK
modifications: plasma-purified wild-type TTR, misfolded/aggregated at pH 3.0
As to B2, the values for the EC50 in test [5] and in test [6] were 8.3 nM and 0.338 nM, respectively.
